Data from the supplement of paper PMC12764529.
± gives the half width of the 95% confidence interval.

Experiments:
[1] = folding stability dG unfold (combined trypsin and chymotrypsin); higher = more stable
Procedure, shortened: (§1)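 Bayesian fitting of sequencing counts gave K50 for each design. Unfolding free energy followed by setting this against a sequence-predicted unfolded-state K50 and a shared folded-state K50, either per protease or with trypsin and chymotrypsin combined. The designs, under 80 residues and lacking cysteine, were digested in a PA-tagged cDNA display format at 11 threefold-diluted protease concentrations and without protease, and only those with AlphaFold2 dimer inter-PAE above 15 were kept.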

[2] = folding stability dG unfold from trypsin proteolysis; higher = more stable
Procedure, shortened: as §1

[3] = folding stability dG unfold from chymotrypsin proteolysis; higher = more stable
Procedure, shortened: as §1

Sequence | folding stability dG unfold [1] [kcal/mol] | folding stability dG unfold [2] [kcal/mol] | folding stability dG unfold [3] [kcal/mol]
SGPTSITFPDGSSASISLSPDSFTITITLPGSSATSTYDPATGTTTITLTFSSSTVTLTLDPATGTLTVGSA [r9_207_JUSTAS] | 4.89 ± 0.11 | 3.86 ± 0.11 | 5.01 ± 0.083
SGSFKLLKVEEHPDNPSITAVLTFPDGSTATLRFRPDGSWTGYVESTGKPFTAVSGENELKLFVPEELTLSA [r9_233_TrMRF] | 0.523 ± 0.095 | 0.67 ± 0.059 | 0.319 ± 0.14
SGSSLLSETTEFVELPDDTFATVSTSTYYIPGSGEIVTKTTVTIYPPTGPPVTTTYTSTTTPEGVLVTESSA [r9_856_JUSTAS] | 3.31 ± 0.2 | 2.38 ± 0.13 | 3.59 ± 0.15
SGSTHTVRPPGGLTLTFTFSTDGTTEEAAQALKEALAAALPPDVTVTFDRIDPDKPVTPDEAATVDATVVSA [r9_178_JUSTAS] | 1.21 ± 0.17 | 0.482 ± 0.055 | 1.69 ± 0.11
SGVSVKVTVEGNTITIEVSADAKIKIEVTFPTKKATYEVEVEPGKPVTFTIPLPKDVPKDAFIDKIDIGGSA [r9_1152_TrMRF] | 3.03 ± 0.17 | 1.98 ± 0.11 | 3.56 ± 0.12
SIEEIADTLQKLGLNVNIDDIELEPNPDGRFRIQVQVSGEPIRQVEVPPPPPPPPEEEVRDPDGKEHKVRSA [r9_442_TrROS] | -0.404 ± 0.33 | -0.188 ± 0.086 | -0.281 ± 0.26
SIEIYEGPEEAEEMAEENGTPVIPIPPDMNLSEILKQLKNQPGLPPDQKIVIVIQWEPGQWYVIRIPIKPSA [r9_314_TrROS] | 2.53 ± 0.091 | 2.05 ± 0.059 | 2.734 ± 0.022
SIIRSPNGYWIVITVKVPEGAKPFPPGFEVQRDPEKGTLTIIMPMPPDDIRRLAEHPGVEIEKIEFIPWDSA [r9_827_TrROS] | 1.74 ± 0.069 | 1.14 ± 0.032 | 2.05 ± 0.021
SIITINFHPGMFHISIYKDGGEKTIPMPWSEIKELLKKGVDKVEIHSPDPGFMNEFQKLVQKEGIPIEIHSA [r9_810_TrROS] | 1.9 ± 0.25 | 1.42 ± 0.095 | 2.12 ± 0.06
SIKIEPHPDGFFMLRFPDNGHKIMIRVDPEKGKVKIMFETPGQPVEQEIDPDEGTITIEFPNNKIEIPIKSA [r9_541_TrROS] | 1.56 ± 0.23 | 2.42 ± 0.1 | 1.14 ± 0.24
SIKIRKEKTPNGYYEITFEFPFPDGWPMTIEANVQVDPENGKVKVDIKIEDPNLPPEFKEFIENFEFKVPSA [r9_715_TrROS] | 2.52 ± 0.23 | 1.75 ± 0.079 | 2.97 ± 0.086
SISITLPDGTKTVSQSFNPEGNTITYTMEAPGKKITITLTEKVVGGSKEISVKITTDPVPLTPEEVAALKAS [r1_154_JUSTAS] | 1.86 ± 0.12 | 2.03 ± 0.13 | 1.94 ± 0.085
SITIKIPLKPGYPYALRIHFYNPNGKPREMDMNVTRKPDGEVEIPIKIPDKDIPPGQDIRIQSIEIYPMKSA [r9_359_TrROS] | 1.99 ± 0.26 | 1.5 ± 0.038 | 2.59 ± 0.1
SITITRDPDYYTLRIPPGMDSVEEVQDFLKELGFKLPPGVKDIQVEEVDKENNQVTITIQLDDPEAIQDLSA [r9_820_TrROS] | 0.798 ± 0.2 | 0.601 ± 0.085 | 0.836 ± 0.28
SIYIKIPIDEIKPEWNKNGMITLEIKYPNGKTIKFEFPPGFQIDNIEVIKPGWIMFEFEIVPPADPEDAKSA [r9_501_TrROS] | 2.2 ± 0.16 | 1.76 ± 0.12 | 3.06 ± 0.082
SKAEIVEIKIEKVEKDGKKYYKVKIKVKTKDGKIKEIEITFPEGMSEEEIKKKIEELAKELGIEKVEIKPSA [r9_1203_TrROS_Hall] | 4.53 ± 0.67 | 3.76 ± 0.44 | 4.7 ± 0.24
SKEKVKVEIKLTVTKVFPPEELEKDPKTGKYRNKDTGKWFEPPKVVVKELTLTIEMSKEEVEKLLKELLKSA [r9_165_TrROS_Hall] | 2.29 ± 0.095 | 1.52 ± 0.059 | 2.63 ± 0.048
SKETETVEMEITITVNGKKVKIKATFTRNKDGSITMTITYEDGKKIEITFTNGKIVIVDKKTKKIIAEIPSA [r9_970_TrROS_Hall] | 4.14 ± 0.25 | 2.54 ± 0.19 | 4.41 ± 0.15

Sequence | folding stability dG unfold [1] [kcal/mol] | folding stability dG unfold [2] [kcal/mol] | folding stability dG unfold [3] [kcal/mol]
SKFKIDEIKYEPNKPYTIKVKLPDGTTIEIKYDPNKPNEVKIILTHPDGSKKEFTLPYNYPININLKVNPSA [r9_875_TrMRF] | 1.95 ± 0.083 | 1.59 ± 0.031 | 2.05 ± 0.081
SKGKKVLVIPATLPEAEEIAKALGLPPSLFPSSKKLVDALKEAFPENVVVVVAPAKPVTEEELKALAEGKSA [r9_74_TrMRF] | 0.678 ± 0.081 | 0.19 ± 0.037 | 0.93 ± 0.039
SKIEIDEFPWERNPDDGYATIQIKIKVRDPDKKKKDIPHEFPPGSSPDQFWDQIENRAQNNGIKDVEISWSA [r9_1203_TrROS] | 0.032 ± 0.13 | 0.0973 ± 0.058 | -0.0831 ± 0.11
SKIKIEEVPEGEEVEIEIPETKKTITIVKKDDYLIIKVKDKKTGEEKEIVIKVPPENIEEVLKKIEELLKSA [r9_982_TrROS_Hall] | 2.11 ± 0.4 | 2.01 ± 0.1 | 2.34 ± 0.25
SKIRIEVPGETIEITVPPGATVEFDEETGEITITLPDGSKRTIRLPPNAKIEVVDGEIRITIRLPPPPEPSA [r9_653_TrROS_Hall] | 2.93 ± 0.21 | 3.15 ± 0.12 | 2.78 ± 0.2
SKKIIIKITITDPKNKKKIKITEIIFDKKTKKIIIKIEVENVKNKEKLKSKEDVLEAIKKLLEKLGFKPISA [r9_258_TrROS_Hall] | 2.25 ± 0.47 | 1.81 ± 0.23 | 2.47 ± 0.35
SKKKIEIEVIDLKTGKTETIEADTLEEALEEIKKNAPPGSTVIVRIKLPDGSVLEITLEIKPEKVTEKEKSA [r9_482_TrROS_Hall] | 1.21 ± 0.22 | 0.956 ± 0.074 | 1.37 ± 0.087
SKKKKEKKKKEKEKKEKKKVIVLSEEELLEKVRELAKKGKKVKIVVKTPDKELAERLAKEAEELGVEVEVSA [r9_468_TrROS_Hall] | 1.31 ± 0.13 | 1.45 ± 0.059 | 1.32 ± 0.027
SKKKKKKKKKKPKTVIIEIDVKEMSEEEIREILKKLPKNVKRVIIIAKSEEEKEKLKELLKEAGYEVEIVSA [r9_919_TrROS_Hall] | 1.76 ± 0.25 | 1.96 ± 0.18 | 1.94 ± 0.069
SKKKKKKKKKKVIIKIKKDGKEIYIEMTVEEIKELLKKGVKKIEIYSPSEEEKEKIKKLLEEEGVEVEEVSA [r9_810_TrROS_Hall] | 1.78 ± 0.18 | 2 ± 0.1 | 1.71 ± 0.07
SKKKKKKTIKIKITIKVEKEVKIRIIYNGKEKEITIKPGETKTIEITFPAGKVIIEIYKDGKPIKKIEIKSA [r9_411_TrROS_Hall] | 2.95 ± 0.1 | 2.94 ± 0.092 | 3 ± 0.051
SKKKKPPKKTVTVVVKVKPGEKITLTLKNKDGKEIAKVEFTKLPEDEPLYIATVTLKDGKLTIKVTKLKPSA [r9_238_TrROS_Hall] | 2.66 ± 0.34 | 2.1 ± 0.36 | 2.53 ± 0.13
SKKKKTIVIELTKDELKELLKKLKVEEGDEVEIFVRNKDGSIYKLTIKNGKITKIEPFKGVPNKVVIVIKSA [r9_849_TrROS_Hall] | 3.07 ± 0.3 | 1.84 ± 0.067 | 3.49 ± 0.068
SKKKVTININITPGDPEQMEENVRWAIKEAAENDPDKEVTITIHFPPGHPEWMRWIKELFTKKGIPITIHSA [r9_1202_TrROS] | 3.16 ± 0.059 | 2.88 ± 0.042 | 3.3 ± 0.037
SKKTVYRIVIELENGEKLEIEVPLGSEVKIEKKEDGTITITVNGKKIEIKLKPGEKAKIVKIEKLPEEEESA [r9_773_TrROS_Hall] | 2.52 ± 0.23 | 2.1 ± 0.13 | 2.48 ± 0.064
SKKVKEITIEGAPPGAKVTITVEEKGDKLIVRVEVERNGKTETFEVEMTLDELKALLDAGYTIRITEVIPSA [r9_1021_TrROS_Hall] | 1.99 ± 0.35 | 2.04 ± 0.15 | 2.12 ± 0.086
SKKVTLPIRFPWNGWEIEITAEELAEKKGLDPEDLTIHVVMPGPGWMYTIKIDPDGIEIEPIGPVPPNDMSA [r9_819_TrROS] | 2.54 ± 0.074 | 1.45 ± 0.029 | 2.951 ± 0.026
SKKVVFVTYPKTSVKEIVEKLKENPNTEFVFLMPSSVGPEFYEKLKKALKEANIPKEQKVLFLPVEENSLSA [r9_670_TrMRF] | 3.04 ± 0.077 | 2.92 ± 0.13 | 3.106 ± 0.015
